Source: US20040254341

Target: APP695 with C-terminal dilysine and the mutation KM-DA594-597 to SYEA594-597, expressed in HEK 293 derivative cells, P05067
Sequence (P05067 whole entry, looked up, change not shown, tested part not stated): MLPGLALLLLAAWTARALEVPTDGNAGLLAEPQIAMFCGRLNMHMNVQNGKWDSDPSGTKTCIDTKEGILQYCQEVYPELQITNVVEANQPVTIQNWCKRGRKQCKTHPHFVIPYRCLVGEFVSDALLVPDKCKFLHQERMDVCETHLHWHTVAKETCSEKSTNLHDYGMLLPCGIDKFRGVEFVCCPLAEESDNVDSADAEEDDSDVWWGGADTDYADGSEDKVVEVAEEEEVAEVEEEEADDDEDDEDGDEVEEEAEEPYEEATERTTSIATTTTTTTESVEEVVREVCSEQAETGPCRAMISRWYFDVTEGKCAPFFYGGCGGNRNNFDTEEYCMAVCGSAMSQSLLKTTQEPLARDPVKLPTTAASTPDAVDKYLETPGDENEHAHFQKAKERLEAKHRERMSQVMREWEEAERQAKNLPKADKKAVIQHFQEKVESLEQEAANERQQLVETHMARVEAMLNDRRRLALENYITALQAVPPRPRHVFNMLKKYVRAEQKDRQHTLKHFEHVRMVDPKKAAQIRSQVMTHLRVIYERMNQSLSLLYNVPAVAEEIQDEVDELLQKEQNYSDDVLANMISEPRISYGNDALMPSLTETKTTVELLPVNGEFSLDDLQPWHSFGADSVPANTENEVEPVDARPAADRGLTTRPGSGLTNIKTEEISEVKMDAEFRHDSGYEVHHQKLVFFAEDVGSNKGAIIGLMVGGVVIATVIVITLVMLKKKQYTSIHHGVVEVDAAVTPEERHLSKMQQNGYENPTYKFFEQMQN

B1: Hu-Asp2 expressed in a stable HEK-293 derivative cell line that expresses higher levels of Hu-Asp2 (protein)
chain: ETDEEPEEPGRRGSFVEMVDNLRGKSGQGYYVEMTVGSPPQTLNILVDTGSSNFAVGAAPHPFLHRYYQRQLSSTYRDLRKGVYVPYTQGKWEGELGTDLVSIPHGPNVTVRANIAAITESDKFFINGSNWEGILGLAYAEIARPDDSLEPFFDSLVKQTHVPNLFSLHLCGAGFPLNQSEVLASVGGSMIIGGIDHSLYTGSLWYTPIRREWYYEVIIVRVEINGQDLKMDCKEYNYDKSIVDSGTTNLRLPKKVFEAAVKSIKAASSTEKFPDGFWLGEQLVCWQAGTTPWNIFPVISLYLMGEVTNQSFRITILPQQYLRPVEDVATSQDDCYKFAISQSSTGTVMGAVIMEGFYVVFDRARKRIGFAVSACHVHDEFRTAAVEGPFVTLDMEDCGYNIPQTDESTLMTIAYVMAAICALFMLPLCLMVCQWRCLRCLRQQHDDFADDISLLK
- β-secretase cleavage product CTF-99, Western blot with antibody C8: both mutant APP variants were proficiently cleaved by Asp2
